The results in this text go back to doi:10.1101/2023.12.08.570772 (bioRxiv, 2023).

Where a chain is given by its changes, count along the chain named.

The labels stand for the following.
T1: Full length MAGEA4 M161D (human, UniProt P43358 1-317, M161D)
T1 sequence: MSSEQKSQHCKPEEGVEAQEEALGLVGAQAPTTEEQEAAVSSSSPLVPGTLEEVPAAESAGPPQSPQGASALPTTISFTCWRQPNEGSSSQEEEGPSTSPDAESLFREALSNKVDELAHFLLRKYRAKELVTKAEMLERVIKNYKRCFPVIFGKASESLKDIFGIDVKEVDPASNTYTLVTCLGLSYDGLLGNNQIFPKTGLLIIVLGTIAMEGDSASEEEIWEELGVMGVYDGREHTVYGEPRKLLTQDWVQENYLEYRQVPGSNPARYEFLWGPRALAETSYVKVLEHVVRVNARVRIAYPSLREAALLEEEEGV

B1: Full length MAGEA4 WT (N-terminal histidine tag) (natural protein)
chain: T1 sequence with D161M

Assay [1] has as its target B1. Nature of the assay: ITC.
Another assay has as its target T1, Full length MAGEA4 M161D. Nature of the assay: ITC.
The target in assay [2] is His-tagged full length (FL) wildtype (WT) RAD18 (human, UniProt Q9NS91 1-495). Nature of the assay: cross-linking.
Chain of His-tagged full length (FL) wildtype (WT) RAD18 (Q9NS91 whole entry): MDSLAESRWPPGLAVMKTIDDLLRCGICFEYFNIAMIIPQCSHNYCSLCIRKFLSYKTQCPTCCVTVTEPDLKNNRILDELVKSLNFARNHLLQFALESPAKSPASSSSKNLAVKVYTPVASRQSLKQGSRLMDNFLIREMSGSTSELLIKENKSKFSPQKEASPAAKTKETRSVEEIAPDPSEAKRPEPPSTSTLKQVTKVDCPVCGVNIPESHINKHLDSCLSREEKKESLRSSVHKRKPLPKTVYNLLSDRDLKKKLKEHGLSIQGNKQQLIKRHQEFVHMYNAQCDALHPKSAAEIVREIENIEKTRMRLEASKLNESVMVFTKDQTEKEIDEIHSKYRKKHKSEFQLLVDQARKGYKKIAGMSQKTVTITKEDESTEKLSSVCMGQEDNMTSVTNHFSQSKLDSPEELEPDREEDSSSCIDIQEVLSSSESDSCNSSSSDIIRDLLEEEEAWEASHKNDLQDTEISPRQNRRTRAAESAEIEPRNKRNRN

In the case of SKYRKKHKSEFQLLVDQARKGYKKIAG [RAD18 R6BD peptide (27 amino acid peptide containing amino acids 340-366 of RAD18)], the Kd in assay [1] stood at 405 nM; with Full length MAGEA4 M161D, 1660 nM.
On to B1, for which the binding result in assay [2] is given as “binds”.
